Experimental data reported in the DeepSol protein solubility set.

Experiment: soluble on expression in E. coli; label from the status in PepcDB or PDB records

Sequence | soluble on expression in E. coli
MPTASPIYDVVVVGAGISGLIATQLLDRAGLNIKCFEACSRVGGRAVSVQQSDLFLDLGATWFWLNEPLVQQLVNNLGLGTFPQAIEGDALFETLVDAPSRLRGNPIDAASGRFQAGASSLALGLAAQLKPGVLELGDPVHSLSEEDGEIVVKSSKQIVRAKHVIIAVPPALAAELIGFTLDLPADVRKAAHPQHIAVMNWAKEKYTLPTQAASAGGFGHELFQQPLGHGRIHWASTEVATEFGGHLEGAVRAGIQAALQTGFNLKSLEHHHHHH | soluble
MPVDRGAVRDAAKYLRGVRPLDPAALREYVPGQPHEAVVRQVLREQAADLGIIERADGTFVVPPEEPVGPPFNGVSALPERYERVVEAELTAAYGPDWHRGDTGDSLRETIRRFKDDYYRRNPVEYDREVALGYAVYHLAGYYAAVQYVLAGLARDGLLGHDLRVLDLGAGVGGPAVGLFDFLPDEALVEYHAVEPSAAADVLDALLAETPRNVHTTIHRETAESFQPAGEYDLVLACSVLSELDDAASVLRKYADAMAADGTALALAPADKHTSTHLRAVERAVEDDPFTVYGPTPRLWPDRRPTDSGWSFDERPAVEVPAVQSRLADASQDPGEFRHTDVRFSYSLLRRDDRRRHAVELSGDRLLALGDADDRVTDRADLLVAKLSRNLAGADANPVFRVSDGSQTTDCYAVLVRPTSLNGGIEAADYGDLVSIEDALVLWNDDEDAYNLVVDEETVVDAV | not soluble
MPVELKSFDEFVKVVERAVECRVKRGKDVVKIKARTKRYLYTLKVPPEKEAEVLEQVKAKCKNLVELLEHHHHHHLEHHHHHHLEHHHHHHLEHHHHHHLEHHHHHHLEHHHHHHLEHHHHHH | not soluble
MPVKLATALSNNLFPALDSQLRAGRHIGIEELENHVFLMDFQEVLEEFYSRYNVELIRAPEGFFYLRPRSTTLIPRSVLSELDMMVGKILCYLYLSPERLAHEGIFSQQELYEELLSLADESKLLKLVNQRSTGSDLDRQKLQEKVRTSLNRLRRLGMIYFMGNDSSKFRITESVFRFGADVRSGDDAREAQLRMIRDGEAMPVEGSLSLKDDSDDNDRTDDTAPETGEDELEHHHHHH | not soluble
MPVLHNRISNDALKAKMLAESEPRTTISFYKYFHIADPKATRDALYQLFTALNVFGRVYLAHEGINAQISVPASNVETFRAQLYAFDPALEGLRLNIALDDDGKSFWVLRMKVRDRIVADGIDDPHFDASNVGEYLQAAEVNAMLDDPDALFIDMRNHYEYEVGHFENALEIPADTFREQLPKAVEMMQAHKDKKIVMYCTGGIRCEKASAWMKHNGFNKVWHIEGGIIEYARKAREQGLPVRFIGKNFVFDERMGERISDEIIAHCHQCGAPCDSHTNCKNDGCHLLFIQCPVCAEKYKGCCSEICCEESALPPEEQRRRRAGRENGNKIFNKSRGRLNTTLGIPDPTE | not soluble
MPVNNENLTSVLDARPFELSEEQKSPLFKANLLAELVHHYQCNEMYRKFCQKNKFDPLVFDGEVADIPPIPVHIFKAIGHKLSSVSDDTIKAKLQSSATSGVPSTILLDKVTARRQTRAMARVMQEVLGPKRRPFCIMDIDPTSPNATNLGARIAAVKGYLNFASTSKYFIDADSPSAPLEFLEQKFVEHLNSLASEEPLIIFGFTFVLYHTVFKTLKDKGISFQLPKGSQVIHIGGWKKLESEKVDKITFNRDIASVLGISPDDVVDIYGFTEQMGLNYPDCKAGWKHIHAYSDVIIRDESNLEVCGPGKVGLLEFVSPLPHSYPGNVVLTDDLGVIEESLCECGKAGKRFKVIGRAKKAEVRGCGDVMSEKLTKKPSYKPLSQQEERLTIYHSPIFLDDTMLEHHHHHH | soluble
MPYTFENSEALLKNLKDAAPYISAAERFASFKGFVYDKRINIACTSEKLARAGFYSTASPEFPASAKCPFCMLEINFEQCDDPWEKHKSGSPHCEFVMIGEIEESELSFRIISNLAIRHATVRLYEELLGIVATLENGDIANENPITRADATRKLISFRSSSKLLTFDHRLATFQNFIFDKKRNVKCTSKKLAKAGWFSIANKKDKTSAKCPFCLVELDFDESDDPWEEHQKFSASCDFIKLGKLDEKKWTENEALMLGARITIMQKYEKGSWLIDELEKENRIDEIIKIRKIMIKPNHVLKRRRCSI | not soluble
MPYYTNDDNDVDDFTEYDPMPYSGGYDITVTYGRSIPPSDETCYPLSSLSGDAFEYQRPNFSSNHDSSAYDDQALKTEYSSYARPGPVGSGSDFGRKPNSGYGGRTEVEYGRKTESEHGSGYGGRIESDYVKPSYGGHEDDGDDGHKKHSGKDYDDGDEKSKKKEKEKKKDKKKDGNNSEDDEFKKKKKKEQYKEHHDDDDYDEKKKKKKDYNDDDEKKKKKHYNDDDDEKKKKHNYNDDDDEKKKKKEYHDDEDKKKKKHYDNDDDEKKKKKDHRDDDDEKKKKKDKHHKGHD | soluble
MQAKVHVKKGDTVLVASGKYKGRVGKVKAVLPRKMAVIVEGVNLVKKAVRPSPKHPQGGFVEQEAPLHASKVRPICPACGKPTRVRKKFLEDGRKIRACAKCGGSLDVEELEHHHHHH | not soluble
MQAVGLITEYNPLHNGHRYHLRQAQQLTNADCVIVVMSGDWLQRGEPAILDKWTRAKLALENGADLVIELPVFFATQPAHLFARGGIELLSALDCTSVVFGAEHPELDFQRLATAIAARQGSFTHYNATFATQFNAALQAATGVTLTAANDMLSFCYYAANQTLAHPMQLLPIKRRQADHATTTIAADSRYASGTAVRQAALAQDWAALKPVVPADTFTALTTQRLQ | not soluble
MQDEVETEVIIKDIFKQGKICFIPQYQFQSNHMDMVRLTSPEEIALLPKTSWNIHQPGEGDVREEALSTGGLDLIFLPGLGFDKDGNRLGRGKGYYDTYLKRCVQHQEVKPYTMALAFKEQICPQIPVDEHDMKVDEVLYEDSPAS | soluble
MQDLEAELERARELDVATLADAIETIGFECTRCGACCKSEADDPHTATVFPDEVRDVQAAAGAETDRDWRDVARPMPYGLDEDGAGETFEWALQADSCGDCTFYREDDDGTGACSVHGSRPLICQTYPFSVALGGTSQPMGEAVDEAGMVRAHECEGLGRDISRADAEELAGALKARAIRELEEAIDVREAYAPANPEPGATVVHDSEGAKRPDGSAYPNAAALEHHHHHH | not soluble
MQDLSFSTIENHLGPAKDRFFGDGFKHVEYSARHVNLTESEANASISLSYPANWSKKNDSGELIPHLSSIDALTISINLSQDILLNRFKSIDHCWVRRISIRAGKKPEEDLRNINAKITKESQGLDSQGDTNLIFGGNVGTMTVQLEFIIPAAHEVDTIKDSTEKNCYSLHFKNRTQFIDDIIFYSPLNAISKLFVANDNEPHFLPGGIEANYPNIINPVDSLVSHAQIAQALLYKLDGLTRGESNTLWMRNLNIIAENPAKRRAATRLLVTELKRANIVSLKGENWRVAEVAGHMNGITFSSSVAHLLPL | not soluble
MQDRQKAQDYRALLLADTPLIDVRAPIEFEQGAMPGAINLPLMMDDERAAVGTCYKRQGADAALALGHRLVCGDIRQQRLEAWKAAYQRFPNGYLCCARGGQRSHIVQRWLQETGIDCPLIEGGYKALRQTAIQATWQLAQKPILLIGGCTGSGKTQLVRQQPNGVDLEGLARHRGSSFGRTLNPQLSQASFENKLAVELLKINARQTLKRWVLEDEGRTIGANHLPECLRERMAQAPIAVVEDPFALRLERLREEYFIRMHHDFTHAYGDEAGWQAYSEYLHHGLFAIRRRLGLQRFAELTDTLDRALAEQLSSGSTDGHMAWLVPLLNEYYDPMYRYQLEKKAANIVFRGTWQDVANWLKAQ | not soluble
MQEEVNEKTVSLCITGGKVTARLLKQAMMRFLAAMEKEKAEKARKQQVKGPPDKDYHGKQSLKKLAQQNVQLSNIEITDNNIKAFEKVAKKYGIDFSLKRDKSVDPPRYFVFFKARDVDVMTAAFREFTGKTLNKTKKPSVRKKLQQAIAARSQDKQREREKSKEKQKEPTL | not soluble
MQEKTMKQMQQEVDDYISQFKEGYFSPLAMLARLTEELGELAREVNHYYGEKSKKATEQEKTVEEELGDLLFVLICFANSLGIDLQAAHDRVMDKFRTRDRDRWTRKEEGS | not soluble
MQFYAALFDFPCVPEISGPQPGNDEKSWQRDFLALTNARGTFDPWDTQTCQPCTLEGIVSRNHDAFSVADFSHNVFKYVRKNHVKTTVHWKRHWQRARMAHEFVYGEQS | not soluble
MQIFLLGLDNTTHTLDVDASTTLSAIKGVIGAGEEFSISYGSKVLSEELTLGECQIESLSTLSVNGRLLGGKVHGSLARAGKVRAQTPKVDKQDKKKKKRGRAFRRVQYTRRYVNVASGPGKKRGPNSNS | not soluble
